From patent US20230241072A1, “ANTHRACYCLINE DERIVATIVES” (ALMAC DISCOVERY LIMITED, priority 2019, published 2023)

B1: P3A1: VNAR domain, SEQ ID NO: 43 (protein)
VHH: TRVDQTPRTATKETGESLTINCVLTDTSYGLYSTSWFRKNPGTTDWERMSIGGRYVESVNKGAKSFSLRIKDLTVADSATYYCKAREARHPWLRQWYDGAGTVLTVN
B2: P3A1hFc-PEG4-va-EDA-PNU (conjugate)
chain: TRVDQTPRTATKETGESLTINCVLTDTSYGLYSTSWFRKNPGTTDWERMSIGGRYVESVNKGAKSFSLRIKDLTVADSATYYCKAREARHPWLRQWYDGAGTVLTVNGGGGSGGGGSGGGGS
modifications: left off: a dimerising Fc or GST

Experiments:
ROR1 = ROR1 (Homo sapiens, UniProt Q01973); conditions: VNAR domain; data in WO 2019/122447; cited from earlier work
Kasumi-2 = assay: In vitro cell viability assay (Cell Titre Glo), VNAR drug conjugates: Kasumi-2; type: cell-based, human
Procedure: (§1) In Vitro Cell Viability Assays for Cancer Cells Treated with Anti ROR1 VNAR Drug Conjugates
(§2) Cells were seeded into white, clear bottom 96 well plates (Costar) and incubated at 37° C., 5% CO2 for 24 hours. On the following day, dilution series were set up for each test agent at ×10 working stocks. The dose response ×10 stock was: 10000, 5000, 1000, 500, 100, 50, 10, 5, 1, 0.5 nM etc. 10 μL of the ×10 stock solutions were added to the cell plates (90 μl per well) using a multichannel pipette. […] 100d of vehicle control (PBS) was added to the control wells (columns 11 and 12). Plates were incubated at 37′C, 5% CO2 for 72-96 hours. Promega Cell litre Glo reagent was used as per the manufacturer's instructions to assess cell viability. Briefly, assay plates were removed from incubator and allowed to equilibrate to room temperature before adding […] of room temperature Cell litre Glo reagent to each 100 μl assay well. Plates were placed on a plate shaker for 2 minutes at 600 rpm. Plates were allowed to sit for a further 10 minutes at room temperature prior to measuring luminescence read-out using a Clariostar plate-reader (BMG). Data was analysed by calculating the average for untreated (vehicle only) control wells and determining the % of control for each treated well. % of control data was then plotted against Log [Treatment] concentration and the IC50 value derived using non-linear regression fitting in GraphPad Prism software.
(§3) The following cell lines were used: • Kasumi-2—human B cell leukaemia precursor; • PA-1—human ovarian cancer cell line; • PA-1 ROR1 ko—human ovarian cancer cell line with ROR1 knock-out; • 697—human B cell leukaemia precursor, and • MHH-ES1—human Ewing's sarcoma cell line.

PA-1 = assay: In vitro cell viability assay (Cell Titre Glo), VNAR drug conjugates: PA-1; type: cell-based, human
Procedure: as §1, §2, §3

PA-1 ROR1 ko = assay: In vitro cell viability assay (Cell Titre Glo), VNAR drug conjugates: PA-1 ROR1 ko; type: cell-based, human
Procedure: as §1, §2, §3

697 = assay: In vitro cell viability assay (Cell Titre Glo), VNAR drug conjugates: 697; type: cell-based, human
Procedure: as §1, §2, §3

MHH-ES1 = assay: In vitro cell viability assay (Cell Titre Glo), VNAR drug conjugates: MHH-ES1; type: cell-based, human
Procedure: as §1, §2, §3

Cathepsin B = Cathepsin B (Homo sapiens, UniProt P07858); assay: Cathepsin B treatment of protein-PNU conjugates, payload release; type: in vitro ADME; conditions: after treatment with Cat B
Description: Cathepsin B treatment of VNAR-hFc-vc-PAB-EDA-PNU conjugates and the corresponding conjugates of the multimeric proteins liberated free EDA-PNU159682 derivative in a quantitative fashion. Whereas, VNAR-hFc-va-EDA-PNU conjugates and the corresponding conjugates of the multimeric proteins were completely stable to Cathepsin B treatment.
Only the vc-PAB-EDA-PNU releases payload on treatment with CatB as expected for the conditions used in this in vitro assay. The release is quantitative—as the conjugates have a drug to antibody ratio of 2, then twice the concentration of payload released versus the concentration of conjugate is expected after CatB treatment. This expectation matches the data shown in Table 11 for vc-PAB-EDA-PNU conjugates.

[1] = Mouse plasma stability of protein-PNU conjugates (LC-MS of released payload); type: in vitro ADME; conditions: 37° C., 4 μM protein
Procedure: Different P3A1-hFc-PNU conjugates were incubated at 37° C. in mouse plasma at a final concentration of 4 μM of protein. Samples were analysed by LC-MS as a function of time and the amount of released PNU159682 and EDA-PNU159682 derivative was quantified by reference to calibration standards.

[2] = Human plasma stability of protein-PNU conjugates (LC-MS of released payload); type: in vitro ADME; conditions: 37° C., up to 168 h, 4 or 2 uM PDC, LLOQ 0.1 or 0.156 uM
Procedure: Different conjugates were incubated at 37° C. for 168 h in human plasma at a final concentration of 4 μM or 2 μM of protein. Samples were analysed by LC-MS as a function of time up to and including 168 h and the amount of released PNU159682 and EDA-PNU159682 derivative was quantified by reference to calibration standards.

[3] = ratio to corresponding non-binding 2V-hFc conjugate

Molecule | binding to ROR1 (ROR1) | IC50 (Kasumi-2; Table 5, 96 h) | ROR1 targeting/2V non-targeting window Kasumi-2 (Kasumi-2; [3]) | IC50 (PA-1; Table 5, 96 h) | ROR1 targeting/2V non-targeting window PA-1 (PA-1; [3]) | IC50 (PA-1 ROR1 ko; Table 5, 96 h, PA-1 ROR1 ko) | ROR1 targeting/2V non-targeting window PA-1 31-J-06 (PA-1 ROR1 ko; ratio to corresponding non-binding 2V-hFc conjugate, PA-1 31-J-06 (ROR1 −/−; matches PA-1 ROR1 ko of Table 5)) | IC50 (697; Table 5, 96 h) | ROR1 targeting/2V non-targeting window 697 697; [3] | IC50 (MHH-ES1; Table 5, 96 h) | ROR1 targeting/2V non-targeting window MHH-ES1 (MHH-ES1; [3]) | EDA released, per cent of theoretical conc of payload (Cathepsin B; figure in brackets) | Average Conc EDA Released (Cathepsin B; protein 10 uM (2VhFc conjugate 5 uM)) | Concentration (nM) of free PNU payload detected by LC-MS, 4 h ([1]; 4 h) | Concentration (nM) of free PNU payload detected by LC-MS, 24 h ([1]; 24 h) | Concentration (nM) of free PNU payload detected by LC-MS, 48 h ([1]; 48 h) | Concentration (nM) of free PNU payload detected by LC-MS, 72 h ([1]; 72 h) | Concentration (nM) of free PNU payload detected by LC-MS, 96 h ([1]; 96 h) | Concentration (nM) of free PNU payload detected by LC-MS, 120 h ([1]; 120 h) | Observed EDA payload release [2]
B1 | bind to ROR1 | – | – | – | – | – | – | – | – | – | – | – | – | – | – | – | – | – | – | –
B2 | – | 2.3 nM | 43 | 0.15 nM | 360 | 11.3 nM | 4 | 61 nM | 4 | 18 nM | 8.4 | 1.7% | 0.36 µM | 3 nM | 4 nM | 1 nM | 2 nM | 5 nM | 3 nM | no EDA-PNU detected at any time points
